Here are results for 2 substances from patent US20240101686A1.

Read-outs that look alike come from different tables or passages of the source.

Test [1] concerns the target human EGFR on cells (human) (UniProt P00533).
Test [2] has the same target. The source holds these as a separate data set.
Test [3] has as its target human EGFRvIII on cells (human) (UniProt P00533).
For test [4] the target is unchanged. The experiment in a line: FACS on CHO-K1-EGFRvIII 2G3 cells.
The target in test [5] is human EGFR on cells (human) (UniProt P00533). This is another data set of the same source.
Test [6] has the same target. This is another data set of the same source.
Test [7] shares this target. The source holds these as a separate data set.
Test [8] addresses Her2 protein (human) (UniProt P04626).
Test [9] addresses human EGFR-His-tagged fusion protein (human) (UniProt P00533).
Test [10] shares this target. The source holds these as a separate data set.
Test [11] shares this target. The source holds these as a separate data set.
Test [12] deals with human EGFR endogenously expressed on A431 cells (human) (UniProt P00533).
Test [13] concerns the target cynomolgus monkey EGFR on HEK293T-monkey EGFR cells (cynomolgus monkey). Kind of test: FACS, HEK293T-monkey EGFR cells. (A flow cytometer gives signals particle by particle.)
For test [14], the target named is murine EGFR protein (murine) (UniProt Q01279).
Test [15] concerns the target monkey EGFR protein (commercial, SB, catalog number 90285-C08H) (monkey). The experiment in a line: ELISA, coated monkey EGFR protein, antibody 1 nM.
Test [16] concerns the target murine EGFR protein (murine) (UniProt Q01279). This is another data set of the same source.
The target in test [17] is monkey EGFR protein (commercial, SB, catalog number 90285-C08H) (monkey). The experiment in a line: ELISA, coated monkey EGFR protein, antibody 10 nM. (In general: An ELISA detects its analyte on a solid surface through an enzyme-linked reagent.)
Test [18] has as its target murine EGFR protein (murine) (UniProt Q01279). The source holds these as a separate data set.
For test [19] the target is unchanged. The source holds these as a separate data set.
Test [20] concerns the target monkey EGFR protein (commercial, SB, catalog number 90285-C08H) (monkey). The experiment in a line: ELISA, coated monkey EGFR protein, antibody 0.1 nM.
Test [21] shares this target. The experiment in a line: ELISA, coated monkey EGFR protein, antibody 100 nM.
The target of test [22] is human EGFRvIII-His tag protein (extracellular domain Leu25-Ser378) (human) (UniProt P00533).
For test [23], the target named is murine EGFR protein (murine) (UniProt Q01279). This is another data set of the same source.
Test [24] has as its target monkey EGFR protein (commercial, SB, catalog number 90285-C08H) (monkey). Kind of test: ELISA, coated monkey EGFR protein, antibody 0.01 nM.
The target of test [25] is cynomolgus monkey EGFR on HEK293T-monkey EGFR cells (cynomolgus monkey). Kind of test: FACS, HEK293T-monkey EGFR cells (specificity assay).
In test [26] the target is human EGFRvIII-His tag protein (extracellular domain Leu25-Ser378) (human) (UniProt P00533). The source holds these as a separate data set.
In test [27] the target is murine EGFR protein (murine) (UniProt Q01279). This is another data set of the same source.
Test [28] concerns the target monkey EGFR protein (commercial, SB, catalog number 90285-C08H) (monkey). The experiment in a line: ELISA, coated monkey EGFR protein, antibody 0.001 nM.
Test [29] deals with human EGFRvIII-His tag protein (extracellular domain Leu25-Ser378) (human) (UniProt P00533). This is another data set of the same source.
Test [30] has the same target. This is another data set of the same source.
Test [31] has as its target murine EGFR protein (murine) (UniProt Q01279). This is another data set of the same source.
Test [32] deals with monkey EGFR protein (commercial, SB, catalog number 90285-C08H) (monkey). The experiment in a line: ELISA, coated monkey EGFR protein, antibody 0.0001 nM.
The target in test [33] is human EGFRvIII-His tag protein (extracellular domain Leu25-Ser378) (human) (UniProt P00533). The source holds these as a separate data set.
Test [34] has the same target. The source holds these as a separate data set.
Test [35] shares this target. The source holds these as a separate data set.
The target in test [36] is murine EGFR protein (murine) (UniProt Q01279). This is another data set of the same source.
Test [37] deals with monkey EGFR protein (commercial, SB, catalog number 90285-C08H) (monkey). The experiment in a line: ELISA, coated monkey EGFR protein, antibody 0 nM (blank).
The target of test [38] is human EGFRvIII-His tag protein (extracellular domain Leu25-Ser378) (human) (UniProt P00533). This is another data set of the same source.

anti-hel-hIgG1 (antibody): the Average fluorescence intensity in test [1] was determined as 74; in test [3], 35.4; in test [4], 35.4; in test [5] it was 1560; in test [6], 1560; in [7], 1560. Besides, in [2], the Max MFI turned out to be 159. In addition, the OD450 in [8] worked out at 0.21; in test [9], 0.71; in test [10], 0.05; in test [11], 0.07.
Take “anti-hel-hIgG1 (negative control antibody against hen egg lysozyme)”: the Max MFI in [12] turned out to be 199; in [13], 240; in test [25], 141. Also, the OD450 is 0.12 in test [14]; 0.21 in [15]; 0.06 in test [16]; 0.13 in test [17]; 0.06 in [18]; 1.16 in [19]. The OD450 is 0.09 in test [20]; 0.71 in test [21]; 0.22 in test [22]; 0.06 in test [23]; 0.19 in test [24]; 0.13 in test [26]. Besides, the OD450 in test [27] amounted to 0.05; in test [28] it was 0.09; in [29], 0.09; in test [30] it was 0.6; in [31], 0.05; in test [32], 0.06. Besides, the OD450 in test [33] amounted to 0.19; in [34], 0.08; in test [35], 0.07; in [36], 0.06; in test [37] it was 0.07; in test [38] it was 0.07.
